The target of experiment [1] is GST-tagged version of human FcγRIIIA (human) (UniProt P08637). Description: AlphaLISA vs biotin-huIgG, supernatant, round 3. (Alpha assays give light when donor and acceptor beads are brought close together.)
For experiment [2] the target is unchanged. Description: AlphaLISA vs biotin-huIgG, supernatant, round 1.
The target is the same in experiment [3]. Put plainly: AlphaLISA vs biotin-huIgG, supernatant, round 2.

As usually defined, the % inhibition is the share of the control response that was lost under treatment.

GST-tagged version of human FcγRIIIA (human), sequence (P08637 17-208 limits assumed): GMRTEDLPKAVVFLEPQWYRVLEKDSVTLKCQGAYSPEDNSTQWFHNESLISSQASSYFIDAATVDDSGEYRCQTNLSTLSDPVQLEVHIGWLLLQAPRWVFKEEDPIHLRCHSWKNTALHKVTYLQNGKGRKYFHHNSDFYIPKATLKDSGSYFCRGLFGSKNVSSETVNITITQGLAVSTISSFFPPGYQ

Turning to “scFv-Fc/Fc, T307P in dummy Fc (Fc fusion)”, the values for the % inhibition in experiment [1], in experiment [2] and in experiment [3] were 82.1%, 75% and 75.1%, respectively. In addition, the Alpha signal came out at 14100 in experiment [1], 19000 in experiment [2] and 20000 in experiment [3].

As to “scFv-Fc/Fc, F243L in dummy Fc (Fc fusion)”, the % inhibition amounted to 76.1% in experiment [1], 72.9% in experiment [2] and 77.4% in experiment [3]. In addition, the Alpha signal in experiment [1] came to 18800; in experiment [2], 20600; in experiment [3] it was 18200.

Take “scFv-Fc/Fc, V302Q in dummy Fc (Fc fusion)”: the % inhibition in experiment [1] was 57.4%; in experiment [2] it was 47%; in experiment [3], 55.3%. The results for the Alpha signal in experiment [1], in experiment [2] and in experiment [3] were 33400, 40300 and 35900, respectively.

For “scFv-Fc/Fc, A330V in dummy Fc (Fc fusion)”, the % inhibition is 25.6% in experiment [1], 25.8% in experiment [2] and 32.7% in experiment [3]. Moreover, the values for the Alpha signal in experiment [1], in experiment [2] and in experiment [3] were 58400, 56400 and 54100, respectively.

Take “scFv-Fc/Fc, F243V in scFv-Fc (Fc fusion)”: the % inhibition in experiment [1] was 48.6%; in experiment [2], 45.1%; in experiment [3] it was 47.7%. Also, the values for the Alpha signal in experiment [1], in experiment [2] and in experiment [3] were 40400, 41700 and 42100, respectively.

“scFv-Fc/Fc, K288T in dummy Fc (Fc fusion)”: the Alpha signal in experiment [1] was 50300; in experiment [2], 55700; in experiment [3], 53100. The % inhibition in experiment [2] turned out to be 26.7%.

Take “scFv-Fc/Fc, K334M in scFv-Fc (Fc fusion)”: the Alpha signal was 24400 in experiment [1], 22300 in experiment [2] and 19800 in experiment [3]. Further, in experiment [3], the % inhibition was found to be 75.4%.

With “scFv-Fc/Fc, H268K in scFv-Fc (from UniProt P0DOX5 218-449; P0DOX5 218-449) (Fc fusion)”, the % inhibition in experiment [1] was 21.6%; in experiment [2] it was 20.2%; in experiment [3] it was 22.6%. The Alpha signal in experiment [1] amounted to 61600; in experiment [2], 60600; in experiment [3], 62200.

In the case of “scFv-Fc/Fc, L235S in scFv-Fc (Fc fusion)”, the values for the % inhibition in experiment [1], in experiment [2] and in experiment [3] were 91.1%, 89.8% and 92.2%, respectively. The Alpha signal was 7020 in experiment [1], 7790 in experiment [2] and 6260 in experiment [3].

As for “scFv-Fc/Fc, K246V in dummy Fc (Fc fusion)”, the Alpha signal came to 42800 in experiment [1], 43800 in experiment [2] and 44500 in experiment [3].

Regarding “scFv-Fc/Fc, K334A in scFv-Fc (Fc fusion)”, the values for the % inhibition in experiment [1], in experiment [2] and in experiment [3] were 28.2%, 32% and 31.9%, respectively. The Alpha signal came to 56500 in experiment [1], 51700 in experiment [2] and 54800 in experiment [3].

Turning to “scFv-Fc/Fc, K290G in scFv-Fc (from UniProt P0DOX5 218-449; P0DOX5 218-449) (Fc fusion)”, the Alpha signal in experiment [1] turned out to be 55700; in experiment [2] it was 52400; in experiment [3] it was 53800. In addition, the % inhibition in experiment [2] came to 31.1%; in experiment [3], 33.1%.

On to “scFv-Fc/Fc, I332E in scFv-Fc (Fc fusion)”, for which the results for the % inhibition in experiment [1], in experiment [2] and in experiment [3] were 76.5%, 75.1% and 74.6%, respectively. In addition, the figures for the Alpha signal in experiment [1], in experiment [2] and in experiment [3] were 18400, 18900 and 20400, respectively.

“scFv-Fc/Fc, Y296W in scFv-Fc (Fc fusion)”: the % inhibition was 68.5% in experiment [1], 66.7% in experiment [2] and 72.9% in experiment [3]. For the same substance, the Alpha signal amounted to 24800 in experiment [1], 25300 in experiment [2] and 21800 in experiment [3].

Turning to “scFv-Fc/Fc, E258V in scFv-Fc (from UniProt P0DOX5 218-449; P0DOX5 218-449) (Fc fusion)”, the % inhibition in experiment [1] was 71.5%; in experiment [2] it was 69.3%; in experiment [3], 75.8%. In addition, the values for the Alpha signal in experiment [1], in experiment [2] and in experiment [3] were 22400, 23300 and 19500, respectively.

In the case of “scFv-Fc/Fc, K248L in dummy Fc (Fc fusion)”, the % inhibition in experiment [1] turned out to be 68.4%; in experiment [2], 67.5%; in experiment [3], 71.3%. Further, the Alpha signal in experiment [1] came out at 24800; in experiment [2] it was 24700; in experiment [3], 23100.

Take “scFv-Fc/Fc, K290S in scFv-Fc (from UniProt P0DOX5 218-449; P0DOX5 218-449) (Fc fusion)”: the figures for the Alpha signal in experiment [1], in experiment [2] and in experiment [3] were 54600, 57100 and 55900, respectively. In addition, the % inhibition in experiment [2] came out at 24.8%.

For the substance “scFv-Fc/Fc, H268E in scFv-Fc (from UniProt P0DOX5 218-449; P0DOX5 218-449) (Fc fusion)”, the figures for the Alpha signal in experiment [1], in experiment [2] and in experiment [3] were 57100, 54800 and 56600, respectively.

With “scFv-Fc/Fc, N315A in scFv-Fc (Fc fusion)”, the results for the % inhibition in experiment [1] and in experiment [2] were 63.6% and 68.7%, respectively. The Alpha signal in experiment [1] turned out to be 28600; in experiment [2], 23800; in experiment [3], 19700.

With “scFv-Fc/Fc, K246S in dummy Fc (Fc fusion)”, the results for the % inhibition in experiment [1], in experiment [2] and in experiment [3] were 51.8%, 40.6% and 47.3%, respectively. The results for the Alpha signal in experiment [1], in experiment [2] and in experiment [3] were 37900, 45100 and 42400, respectively.

“scFv-Fc/Fc, A287F in scFv-Fc (from UniProt P0DOX5 218-449; P0DOX5 218-449) (Fc fusion)”: the results for the % inhibition in experiment [1], in experiment [2] and in experiment [3] were 67.6%, 47.5% and 58.4%, respectively. The Alpha signal in experiment [1] stood at 25500; in experiment [2] it was 39900; in experiment [3], 33500.

Turning to “scFv-Fc/Fc, A330M in scFv-Fc (Fc fusion)”, the results for the % inhibition in experiment [1], in experiment [2] and in experiment [3] were 26.2%, 27.1% and 36.6%, respectively. Moreover, the Alpha signal was 58000 in experiment [1], 55400 in experiment [2] and 51000 in experiment [3].

For “scFv-Fc/Fc, G236Y in scFv-Fc (Fc fusion)”, the % inhibition in experiment [1] was 20.9%; in experiment [2] it was 15%; in experiment [3] it was 23.2%. The Alpha signal was found to be 62200 in experiment [1], 64600 in experiment [2] and 61700 in experiment [3].

“scFv-Fc/Fc, F243M in dummy Fc (Fc fusion)”: the results for the % inhibition in experiment [1], in experiment [2] and in experiment [3] were 58.7%, 43.3% and 53.1%, respectively. The results for the Alpha signal in experiment [1], in experiment [2] and in experiment [3] were 32400, 43100 and 37700, respectively.

The values are drawn from patent US20140112926A1.
